Test results taken from patent US20230212228A1 (ETH Z RICH, published 2023).
Groups on a side chain read outwards from the residue. No end group written: not given here. Mal‑Cy5 = Cy5-maleimide thiol adduct on the Cys side chain

B1: Cy5-FnBPA5.1 (peptide)
peptide: C(Mal‑Cy5)GGGQVTTGSNLVEFTEESLGIVTGAVSDHTTVEDT
notes: also called Cy5-labelled FnBPA5.1
B2: Cy5-FnBPA5 (peptide)
peptide: C([maleimide-Cy5])GGGQVTTESNLVEFDEESTKGIVTGAVSDHTTVEDTK
modifications: not fully specified
notes: A payload-GGG- format by amide bond is also mentioned; also called Cy5-labelled FnBPA5; FnBPA5 peptide

Legend:
[1] = molecular target: T1, Fib1, N-terminal 30 kDa fragment of fibronectin (Homo sapiens (Human), UniProt P02751 32-290); assay: fluorescence polarization, Cy5-labelled peptide titrated with Fib1
T1 construct: also called Fib1 construct; 30 kDa N-terminal fragment of fibronectin containing the N-terminal FnI1-5 modules

[2] = molecular target: T1, Fib1, N-terminal 30 kDa fragment of …; assay: fluorescence polarization/anisotropy, Cy5-labelled peptide (48 nM) titrated with Fib1 in PBS pH 7.4

T1 sequence (P02751 32-290 limits assumed): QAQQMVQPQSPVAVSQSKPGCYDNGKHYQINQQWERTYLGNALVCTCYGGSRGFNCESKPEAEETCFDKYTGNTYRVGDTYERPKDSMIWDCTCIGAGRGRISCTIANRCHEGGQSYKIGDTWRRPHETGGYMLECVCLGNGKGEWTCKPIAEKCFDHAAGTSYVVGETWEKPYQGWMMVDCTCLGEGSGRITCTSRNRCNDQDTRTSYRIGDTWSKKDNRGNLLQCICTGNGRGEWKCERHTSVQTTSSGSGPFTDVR

Binder	binding result [1]	Kd [2]
B1	binds	
B2		102 nM
